From IntAct's records for PubMed 9647694

B1: ATP-sensitive inward rectifier potassium channel 10 (Mus musculus), Q9JM63 (parent)
chain: MTSVAKVYYSQTTQTESRPLVAPGIRRRRVLTKDGRSNVRMEHIADKRFLYLKDLWTTFIDMQWRYKLLLFSATFAGTWFLFGVVWYLVAVAHGDLLELGPPANHTPCVVQVHTLTGAFLFSLESQTTIGYGFRYISEECPLAIVLLIAQLVLTTILEIFITGTFLAKIARPKKRAETIRFSQHAVVASHNGKPCLMIRVANMRKSLLIGCQVTGKLLQTHQTKEGENIRLNQVNVTFQVDTASDSPFLILPLTFYHVVDETSPLKDLPLRSGEGDFELVLILSGTVESTSATCQVRTSYLPEEILWGYEFTPAISLSASGKYIADFSLFDQVVKVASPSGLRDSTVRYGDPEKLKLEESLREQAEKEGSALSVRISNV

Variants of: B1
Details: with inadl_mouse Patj

Variant	effect of a mutation on the interaction
S377G	disrupting interaction
V379A	disrupting interaction
